Measurements reported in the supplement of paper PMC11246515.
± gives the standard deviation of the averaged measurements.

Test: total protein half-life in vivo (active degradation + dilution); higher = more stable protein
[1] = E. coli NCM3722 delta-clpP delta-lon delta-hslV, growth: N-lim chemostat, doubling time 6 h
[2] = E. coli NCM3722 delta-clpP, growth: N-lim chemostat, doubling time 6 h
[3] = E. coli NCM3722 delta-lon, growth: N-lim chemostat, doubling time 6 h
[4] = wild type E. coli NCM3722, growth: C-lim chemostat, doubling time 3 h
[5] = wild type E. coli NCM3722, growth: P-lim chemostat, doubling time 12 h
[6] = E. coli NCM3722 delta-smpB, growth: N-lim chemostat, doubling time 6 h
[7] = E. coli NCM3722 delta-hslV, growth: N-lim chemostat, doubling time 6 h
[8] = wild type E. coli NCM3722, growth: C-lim chemostat, doubling time 12 h
[9] = wild type E. coli NCM3722, growth: N-lim chemostat, doubling time 6 h
[10] = wild type E. coli NCM3722, growth: N-lim chemostat, doubling time 12 h
[11] = wild type E. coli NCM3722, growth: P-lim chemostat, doubling time 6 h
[12] = wild type E. coli NCM3722, growth: C-lim chemostat, doubling time 6 h

Row | Sequence | total protein half-life in vivo [1] | total protein half-life in vivo [2] | total protein half-life in vivo [3] | total protein half-life in vivo [4] | total protein half-life in vivo [5] | total protein half-life in vivo [6] | total protein half-life in vivo [7] | total protein half-life in vivo [8] | total protein half-life in vivo [9] | total protein half-life in vivo [10] | total protein half-life in vivo [11] | total protein half-life in vivo [12]
1 | MSSISLIQPDRDLFSWPQYWAACFGPAPFLPMSREEMDQLGWDSCDIILVTGDAYVDHPSFGMAICGRMLEAQGFRVGIIAQPDWSSKDDFMRLGKPNLFFGVTAGNMDSMINRYTADRRLRHDDAYTPDNVAGKRPDRATLVYTQRCKEAWKDVPVILGGIEASLRRTAHYDYWSDTVRRSVLVDSKADMLMFGNGERPLVEVAHRLAMGEPISEIRDVRNTAIIVKEALPGWSGVDSTRLDTPGKIDPIPHPYGEDLPCADNKPVAPKKQEAKAVTVQPPRPKPWEKTYVLLPSFEKVKGDKVLYAHASRILHHETNPGCARALMQKHGDRYVWINPPAIPLSTEEMDSVFALPYKRVPHPAYGNARIPAYEMIRFSVNIMRGCFGGCSFCSITEHEGRIIQSRSEDSIINEIEAIRDTVPGFTGVISDLGGPTANMYMLRCKSPRAEQTCRRLSCVYPDICPHMDTNHEPTINLYRRARDLKGIKKILIASGVRYDIAVEDPRYIKELATHHVGGYLKIAPEHTEEGPLSKMMKPGMGSYDRFKELFDTYSKQAGKEQYLIPYFISAHPGTRDEDMVNLALWLKKHRFRLDQVQNFYPSPLANSTTMYYTGKNPLAKIGYKSEDVFVPKGDKQRRLHKALLRYHDPANWPLIRQALEAMGKKHLIGSRRDCLVPAPTIEEMREARRQNRNTRPALTKHTPMATQRQTPATAKKASSTQSRPVNAGAKKRPKAAVGR | 5.41 ± 1.1 h | 1.08 h | 0.614 h | 0.206 h | 1.72 h |  |  |  |  |  |  | 
2 | MRNKNIIMLLMSSLILSGCGPQPENKESQQQQPSTPTEQQVLAAQQAAIKEAEQSAAAAKALAQQEVQQYSDKQALQGRLQEAPTFARAAKAKATHIANPGTARYQQFDDNPVKQVAQNPLATFSLDVDTGSYANVRRFLNQGLLPPPDAVRVEEIVNYFPSDWDIKDKQSIPASKPIPFAMRYELAPAPWNEQRTLLKVDILAKDRKSEELPASNLVFLIDTSGSMISDERLPLIQSSLKLLVKELREQDNIAIVTYAGDSRIALPSISGSHKAEINAAIDSLDAEGSTNGGAGLELAYQQATKGFIKGGINRILLATDGDFNVGIDDPKSIESMVKKQRESGVTLSTFGVGNSNYNEAMMVRIADVGNGNYSYIDTLSEAQKVLNSEMRQMLITVAKDVKAQIEFNPAWVTEYRQIGYEKRQLRVEHFNNDNVDAGDIGAGKHITLLFELTLNGQKASIDKLRYAPDNKLAKSDKTKELAWLKIRWKYPQGKESQLVEFPLGPTINAPSEDMRFRAAVAAYGQKLRGSEYLNNTSWQQIKQWAQQAKGEDPQGYRAEFIRLIELADGVTDISQ |  | 4.02 ± 0.33 h |  |  |  | 2.8393 ± 0.00061 h |  |  |  |  |  | 
3 | MIVLVTGATAGFGECITRRFIQQGHKVIATGRRQERLQELKDELGDNLYIAQLDVRNRAAIEEMLASLPAEWCNIDILVNNAGLALGMEPAHKASVEDWETMIDTNNKGLVYMTRAVLPGMVERNHGHIINIGSTAGSWPYAGGNVYGATKAFVRQFSLNLRTDLHGTAVRVTDIEPGLVGGTEFSNVRFKGDDGKAEKTYQNTVALTPEDVSEAVWWVSTLPAHVNINTLEMMPVTQSYAGLNVHRQ | 5.86 ± 0.16 h |  | 6.57 ± 1.4 h |  | 11.6 ± 1.9 h | 4.72 ± 0.53 h | 6.26 ± 1.3 h | 10.8 ± 0.87 h | 4.82 ± 0.56 h | 8.94 ± 0.42 h | 6.44 ± 0.14 h | 
4 | MRHIFQRLLPRRLWLAGLPCLALLGCVQNHNKPAIDTPAEEKIPVYQLADYLSTECSDIWALQGKSTETNPLYWLRAMDCADRLMPAQSRQQARQYDDGSWQNTFKQGILLADAKITPYERRQLVARIEALSTEIPAQVRPLYQLWRDGQALQLQLAEERQRYSKLQQSSDSELDTLRQQHHVLQQQLELTTRKLENLTDIERQLSTRKPAGNFSPDTPHESEKPAPSTHEVTPDEP [P0AD44] | 6.11 ± 0.099 h | 6.44 ± 0.17 h | 6.9 ± 0.22 h | 3.34 ± 0.092 h | 12.2 ± 3.1 h | 6.12 ± 0.2 h | 6.18 ± 0.37 h | 13.1 ± 0.57 h | 6.28 ± 1 h | 14 ± 1.2 h |  | 6.14 ± 0.27 h
5 | MGFLSGKRILVTGVASKLSIAYGIAQAMHREGAELAFTYQNDKLKGRVEEFAAQLGSDIVLQCDVAEDASIDTMFAELGKVWPKFDGFVHSIGFAPGDQLDGDYVNAVTREGFKIAHDISSYSFVAMAKACRSMLNPGSALLTLSYLGAERAIPNYNVMGLAKASLEANVRYMANAMGPEGVRVNAISAGPIRTLAASGIKDFRKMLAHCEAVTPIRRTVTIEDVGNSAAFLCSDLSAGISGEVVHVDGGFSIAAMNELELK [P0AEK4] | 5.4 ± 0.09 h | 5.37 ± 0.42 h | 5.88 ± 0.25 h | 3.26 ± 0.14 h | 13.74 ± 0.13 h | 4.97 ± 0.28 h | 5.299 ± 0.046 h | 11 ± 1.2 h | 5.28 ± 0.18 h | 10.2 ± 2 h | 6.19 ± 0.08 h | 5.9 ± 1.1 h
6 | MSNNGSSPLVLWYNQLGMNDVDRVGGKNASLGEMITNLSGMGVSVPNGFATTADAFNQFLDQSGVNQRIYELLDKTDIDDVTQLAKAGAQIRQWIIDTPFQPELENAIREAYAQLSADDENASFAVRSSATAEDMPDASFAGQQETFLNVQGFDAVLVAVKHVFASLFNDRAISYRVHQGYDHRGVALSAGVQRMVRSDLASSGVMFSIDTESGFDQVVFITSAWGLGEMVVQGAVNPDEFYVHKPTLAANRPAIVRRTMGSKKIRMVYAPTQEHGKQVKIEDVPQEQRDIFSLTNEEVQELAKQAVQIEKHYGRPMDIEWAKDGHTGKLFIVQARPETVRSRGQVMERYTLHSQGKIIAEGRAIGHRIGAGPVKVIHDISEMNRIEPGDVLVTDMTDPDWEPIMKKASAIVTNRGGRTCHAAIIARELGIPAVVGCGDATERMKDGENVTVSCAEGDTGYVYAELLEFSVKSSSVETMPDLPLKVMMNVGNPDRAFDFACLPNEGVGLARLEFIINRMIGVHPRALLEFDDQEPQLQNEIREMMKGFDSPREFYVGRLTEGIATLGAAFYPKRVIVRLSDFKSNEYANLVGGERYEPDEENPMLGFRGAGRYVSDSFRDCFALECEAVKRVRNDMGLTNVEIMIPFVRTVDQAKAVVEELARQGLKRGENGLKIIMMCEIPSNALLAEQFLEYFDGFSIGSNDMTQLALGLDRDSGVVSELFDERNDAVKALLSMAIRAAKKQGKYVGICGQGPSDHEDFAAWLMEEGIDSLSLNPDTVVQTWLSLAELKK | 4.83 ± 0.48 h | 4.47 ± 0.29 h | 4.853 ± 0.045 h | 3.08 ± 0.22 h | 11.7 ± 0.34 h | 4.21 ± 0.38 h | 4.6 ± 0.19 h | 10.1 ± 1 h | 4.5 ± 0.17 h | 7.03 ± 0.19 h | 5.9 ± 0.38 h | 5.77 ± 0.31 h
7 | MGSNIHGISCTANNYLKQAWNDIKNEYEKNQTYSITLFENTLVCFMRLYNELRRKVNEEDTPCLECESLEKEFEEMQNDNDLSLFMRILRTNDTQIYSGVSGGITYTIQYVRDIDIVRVSLPGRASESITDFKGYYWYNFMEYIENINACDDVFSEYCFDDENISVQPERINTPGISDLDSDIDLSGISFIQRETNQALGLKYAPVDGDGYCLLRAILVLKQHDYSWALVSYKMQKEVYNEFIKMVDKKTIEALVDTAFYNLREDVKTLFGVDLQSDNQIQGQSSLMSWSFLFFKKQFIDSCLNNEKCILHLPEFIFNDNKNLLALDTDTSDRIKAVKNFLVVLSDSICSLFIVNSNVASISLGNESFSTDEDLEYGYLMNTGNHYDVYLPPELFAQAYKLNNKEMNAQLDYLNRYAI |  |  | 5.18 h |  |  |  |  |  |  |  |  | 
